Residue numbers refer to the chain shown, from its start.
What was measured:
Assay in all cases: flow cytometry on transfected HEK293T cells
[1] = molecular target: T1, CLEC14A^C138S (GFP tag, expressed in HEK293T) (human, UniProt Q86T13 22-490)
T1 construct: not shown: C-terminal GFP tag from vector pEGFP-N1
T1 sequence: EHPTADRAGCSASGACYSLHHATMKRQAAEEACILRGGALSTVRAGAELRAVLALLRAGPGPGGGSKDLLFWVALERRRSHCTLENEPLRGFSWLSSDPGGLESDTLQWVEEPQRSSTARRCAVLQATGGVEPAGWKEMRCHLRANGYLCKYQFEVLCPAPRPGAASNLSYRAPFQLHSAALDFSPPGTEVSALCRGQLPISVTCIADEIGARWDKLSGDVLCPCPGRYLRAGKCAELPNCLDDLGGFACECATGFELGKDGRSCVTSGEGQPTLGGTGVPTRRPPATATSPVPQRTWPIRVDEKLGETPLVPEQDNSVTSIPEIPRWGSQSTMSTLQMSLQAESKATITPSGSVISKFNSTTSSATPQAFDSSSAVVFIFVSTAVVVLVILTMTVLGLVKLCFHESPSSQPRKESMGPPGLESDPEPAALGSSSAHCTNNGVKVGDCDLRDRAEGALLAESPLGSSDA

[2] = molecular target: T2, CD93^C104S (GFP tag, expressed in HEK293T) (human, UniProt Q9NPY3 22-652)
T2 construct: not shown: C-terminal GFP tag from vector pEGFP-N1
T2 sequence: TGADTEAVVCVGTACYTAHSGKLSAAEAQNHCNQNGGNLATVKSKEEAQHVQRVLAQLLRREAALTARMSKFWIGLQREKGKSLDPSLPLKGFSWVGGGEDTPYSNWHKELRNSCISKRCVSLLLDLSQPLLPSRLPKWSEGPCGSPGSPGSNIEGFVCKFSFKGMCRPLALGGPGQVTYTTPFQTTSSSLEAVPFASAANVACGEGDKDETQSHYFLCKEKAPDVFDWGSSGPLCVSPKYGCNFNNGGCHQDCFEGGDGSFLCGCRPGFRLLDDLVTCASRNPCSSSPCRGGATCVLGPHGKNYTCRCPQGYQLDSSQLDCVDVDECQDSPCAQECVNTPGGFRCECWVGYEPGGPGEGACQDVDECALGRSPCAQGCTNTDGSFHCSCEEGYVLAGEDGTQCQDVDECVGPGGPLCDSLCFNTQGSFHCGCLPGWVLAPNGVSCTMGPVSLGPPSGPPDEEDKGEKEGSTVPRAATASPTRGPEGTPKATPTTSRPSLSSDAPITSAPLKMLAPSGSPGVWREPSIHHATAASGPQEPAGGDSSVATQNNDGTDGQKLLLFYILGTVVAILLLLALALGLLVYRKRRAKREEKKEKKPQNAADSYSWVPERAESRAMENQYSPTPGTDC

[3] = molecular target: T3, CLEC14A^C103S (GFP tag, expressed in HEK293T) (human, UniProt Q86T13 22-490)
T3 construct: not shown: C-terminal GFP tag from vector pEGFP-N1
T3 sequence: T1 sequence with C82S, S117C

[4] = molecular target: T4, CD93^C136S (GFP tag, expressed in HEK293T) (human, UniProt Q9NPY3 22-652)
T4 construct: not shown: C-terminal GFP tag from vector pEGFP-N1
T4 sequence: T2 sequence with S83C, C115S

Measured: binding result

B1: biotinylated MMRN2^495-674 (human, expressed in E. coli with a His tag and a BirA tag) (ligand)
chain: QKLYLDLDVIREGQRDATRALEETQVSLDERRQLDGSSLQALQNAVDAVSLAVDAHKAEGERARAATSRLRSQVQALDDEVGALKAAAAEARHEVRQLHSAFAALLEDALRHEAVLAALFGEEVLEEMSEQTPGPLPLSYEQIRVALQDAASGLQEQALGWDELAARVTALEQASEPPRP
modifications: biotin on the BirA tag
notes: Used for staining of transfected HEK293T cells in flow cytometry, detected with streptavidin-PE; not shown: BirA tag and His tag (vector pET23a)
no binding (tested: 20 µg/mL): [1] | [2] | [3] | [4]

— US20190185532A1 (UNIVERSITY OF BIRMINGHAM, published 2019)
